Results on two substances are retold here after US7078197.

For this assay, the target named is 35S-labeled mRNA-peptide fusion prepared from mRNA 1 crosslinked to linker B, encoding the Flag and Strep-Tag II epitope. Description: precipitation of 35S-labeled fusion on affinity resin, wash, scintillation counting.

As to “Anti-Flag M2 Affinity Gel (Sigma, MO) (antibody)”, the fusion binding (percent bound) came out at 54%.
StrepTactin Sepharose (Genosys, Tex.) yielded a fusion binding (percent bound) of 62%.
